Patent US20220096653A1, “CONJUGATE COMPRISING LIGAND AND CEACAM5 ANTIBODY FAB FRAGMENT” (ASTELLAS PHARMA INC., priority 2019, published 2022)

T1: CEACAM5 (R&D Systems, 4128-CM-050) (human, UniProt P06731 35-685)
T1 construct: Immobilised on the ELISA plate; also called human CEACAM5
T1 sequence (looked up): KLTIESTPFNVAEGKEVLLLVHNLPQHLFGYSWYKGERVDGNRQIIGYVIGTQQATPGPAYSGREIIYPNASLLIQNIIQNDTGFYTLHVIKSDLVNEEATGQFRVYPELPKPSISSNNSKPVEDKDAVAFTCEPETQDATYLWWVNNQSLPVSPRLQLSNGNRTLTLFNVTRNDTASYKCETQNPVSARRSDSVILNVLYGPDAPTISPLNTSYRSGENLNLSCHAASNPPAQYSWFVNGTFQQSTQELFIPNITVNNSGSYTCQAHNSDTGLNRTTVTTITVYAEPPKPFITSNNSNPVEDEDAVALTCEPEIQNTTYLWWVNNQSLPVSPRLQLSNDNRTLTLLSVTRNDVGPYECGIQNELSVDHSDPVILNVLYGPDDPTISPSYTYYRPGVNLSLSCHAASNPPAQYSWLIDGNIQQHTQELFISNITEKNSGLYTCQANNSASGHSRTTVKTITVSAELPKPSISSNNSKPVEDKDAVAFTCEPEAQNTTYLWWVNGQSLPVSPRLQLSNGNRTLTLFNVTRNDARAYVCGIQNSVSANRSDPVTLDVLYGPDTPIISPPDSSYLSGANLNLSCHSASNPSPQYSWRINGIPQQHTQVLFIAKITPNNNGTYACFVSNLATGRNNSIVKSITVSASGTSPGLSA


Target: T1, CEACAM5 (R&D Systems, 4128-CM-050)
Assay: ELISA on immobilised CEACAM5, 4-parameter fit, duplicate
Method: Each anti-human CEACAM5 antibody Fab fragment conjugate prepared in Example 2 was subjected to ELISA to evaluate the binding activity thereof to CEACAM5. In the present test, a phosphate buffer (Nacalai Tesque Inc., 0.1 mol/L-Phosphate Buffer Solution (pH 7.2)) prepared to 10 mM by diluting 10-fold with distilled water was used as a solvent for an antigen immobilization liquid, and 20×PBS/Tween 20 Buffer (Thermo Fisher Scientific Inc., 28352) diluted 20-fold with distilled water was used as a wash liquid. In addition, for bovine serum albumin (BSA) used in the present test, 30% Bovine Serum Albumin solution (Sigma-Aldrich, Inc., A9576-50ML) was added in an appropriate proportion for use. CEACAM5 (R&D Systems, 4128-CM-050) was diluted with a 10 mM phosphate buffer (pH 7.2) to 0.1 μg/mL, and added to a Nunc MaxiSorp White 384 plate (Nunc, 4603272) at 30 μL per well, and the plate was incubated overnight at 4° C. for immobilization. The CEACAM5 immobilization liquid was removed by reverse centrifugation, and then blocking was carried out by adding a PBS/Tween 20 buffer containing 5.0% BSA. Thereafter, the blocking solution was removed by reverse centrifugation, a solution of each CEACAM5 antibody Fab² fragment conjugate described above or a Fab² fragment having no labeling portion (PB009-01) as a control at about 10000 ng/mL was diluted in 14 steps by 3-fold dilution using a PBS/Tween 20 buffer containing 1.0% BSA, and 30 μL was added per well and incubated at room temperature for 60 minutes. The plate was washed 3 times with a PBS/Tween 20 buffer, and Horseradish Peroxidase (HRP)-labeled goat anti-human IgG (H+L chain) antibody (MBL Life Sciences, 206) diluted 1000-fold using a PBS/Tween 20 buffer containing 5.0% BSA was added at 30 μL per well and incubated at room temperature for 30 minutes. The plate was washed 3 times with a PBS/Tween 20 buffer, and ECL Prime Western Blotting DETECTION Reagent (GE Healthcare, RPN2232) as a substrate was added at 30 μL per well. The substrate was incubated at room temperature for 15 minutes, and then a signal value thereof was measured using an Envision counter (PerkinElmer, Inc.).
The test for each antibody was carried out in duplicate, and an EC₅₀ value was calculated using a 4-parameter logistic curve model.

EC50 [nM]	Binder
0.33	(Y-S1-X)p-Fab^2 with Y Gd/DOTA, S1 spacer (a), X -Gly-Lys*-Z2(#N)- (Fab, V domains shown, labeling may sit on this chain; sites not stated; labeling portion (MW 936) on amino groups of the Fab, sites and chain not stated; 1-3 per Fab by MS, also called Ex-No 23; conjugate 23) VH: EVQLVESGGGLVQPGGSLRLSCAASGFNIRDTYMHWVRQAPGKGLEWVARIDPANGNSRYVPKFQGRFTISADTSRNTAYLQMNSLRAEDTAVYYCAPFGYYVSDYAMAYWGQGTLVTVSS VL: DIQLTQSPSSLSASVGDRVTITCRAGESVDIFGVGFLHWYQQKPGKAPKLLIYRASNLESGIPSRFSGSGSRTDFTLTISSLQPEDFATYYCQQTNEDPYTFGQGTKVEIKR
0.38	(Y-S1-X)p-Fab^2 with Y Gd/DOTA, S1 -NH-(CH2)3-C(═O)-, X -Gly-Tyr*-CH2-C(═O)-NH-(CH2)2-Z1(#N)- (Fab, V domains shown, labeling may sit on this chain; sites not stated; labeling portion (MW 1045) on amino groups of the Fab, sites and chain not stated; 1-3 per Fab by MS, also called Ex-No 36; conjugate 36) VH: EVQLVESGGGLVQPGGSLRLSCAASGFNIRDTYMHWVRQAPGKGLEWVARIDPANGNSRYVPKFQGRFTISADTSRNTAYLQMNSLRAEDTAVYYCAPFGYYVSDYAMAYWGQGTLVTVSS VL: DIQLTQSPSSLSASVGDRVTITCRAGESVDIFGVGFLHWYQQKPGKAPKLLIYRASNLESGIPSRFSGSGSRTDFTLTISSLQPEDFATYYCQQTNEDPYTFGQGTKVEIKR
0.36	(Y-S1-X)p-Fab^2 with Y Gd/DOTA, S1 spacer (c), X -Gly-Lys*-Z2(#N)- (Fab, V domains shown, labeling may sit on this chain; sites not stated; labeling portion (MW 908) on amino groups of the Fab, sites and chain not stated; 1-3 per Fab by MS, also called Ex-No 28; conjugate 28) VH: EVQLVESGGGLVQPGGSLRLSCAASGFNIRDTYMHWVRQAPGKGLEWVARIDPANGNSRYVPKFQGRFTISADTSRNTAYLQMNSLRAEDTAVYYCAPFGYYVSDYAMAYWGQGTLVTVSS VL: DIQLTQSPSSLSASVGDRVTITCRAGESVDIFGVGFLHWYQQKPGKAPKLLIYRASNLESGIPSRFSGSGSRTDFTLTISSLQPEDFATYYCQQTNEDPYTFGQGTKVEIKR
0.25	[Gd/DOTA-NH-CH2-(1,3-Ph)-C(═O)-Met-Gly-Lys*-Z2(#S)]p-Fab^2 (Fab, V domains shown, labeling may sit on this chain; sites not stated; labeling portion (MW 1190) bound via 2-iminothiolane-treated amino groups of the Fab, sites and chain not stated; 1-2 per Fab by MS, also called Ex-No 24; Conjugate No. 24) VH: EVQLVESGGGLVQPGGSLRLSCAASGFNIRDTYMHWVRQAPGKGLEWVARIDPANGNSRYVPKFQGRFTISADTSRNTAYLQMNSLRAEDTAVYYCAPFGYYVSDYAMAYWGQGTLVTVSS VL: DIQLTQSPSSLSASVGDRVTITCRAGESVDIFGVGFLHWYQQKPGKAPKLLIYRASNLESGIPSRFSGSGSRTDFTLTISSLQPEDFATYYCQQTNEDPYTFGQGTKVEIKR
0.23	(Y-S1-X)p-Fab^2 with Y Gd/DOTA, S1 - (bond), X -Gly-Tyr-NH-(CH2)5-Z1(#S)- (Fab, V domains shown, labeling may sit on this chain; sites not stated; labeling portion (MW 1045) on amino groups of the Fab, sites and chain not stated; 1-3 per Fab by MS, also called Ex-No 37; conjugate 37) VH: EVQLVESGGGLVQPGGSLRLSCAASGFNIRDTYMHWVRQAPGKGLEWVARIDPANGNSRYVPKFQGRFTISADTSRNTAYLQMNSLRAEDTAVYYCAPFGYYVSDYAMAYWGQGTLVTVSS VL: DIQLTQSPSSLSASVGDRVTITCRAGESVDIFGVGFLHWYQQKPGKAPKLLIYRASNLESGIPSRFSGSGSRTDFTLTISSLQPEDFATYYCQQTNEDPYTFGQGTKVEIKR
0.46	(Y-S1-X)p-Fab^2 with Y Gd/DOTA, S1 spacer (b), X -Gly-Lys*-Z2(#N)- (Fab, V domains shown, labeling may sit on this chain; sites not stated; labeling portion (MW 950) on amino groups of the Fab, sites and chain not stated; 1-3 per Fab by MS, also called Ex-No 27; conjugate 27) VH: EVQLVESGGGLVQPGGSLRLSCAASGFNIRDTYMHWVRQAPGKGLEWVARIDPANGNSRYVPKFQGRFTISADTSRNTAYLQMNSLRAEDTAVYYCAPFGYYVSDYAMAYWGQGTLVTVSS VL: DIQLTQSPSSLSASVGDRVTITCRAGESVDIFGVGFLHWYQQKPGKAPKLLIYRASNLESGIPSRFSGSGSRTDFTLTISSLQPEDFATYYCQQTNEDPYTFGQGTKVEIKR
0.3	[Gd/DOTA-NH-(CH2CH2O)3-CH2-C(═O)-NH-CH2-(1,3-Ph)-C(═O)-Met-Gly-Lys*-Z2(#N)]p-Fab^2 (Fab, V domains shown, labeling may sit on this chain; sites not stated; labeling portion (MW 1278) on amino groups of the Fab, sites and chain not stated; 1-2 per Fab by MS, also called Ex-No 29; Conjugate No. 29) VH: EVQLVESGGGLVQPGGSLRLSCAASGFNIRDTYMHWVRQAPGKGLEWVARIDPANGNSRYVPKFQGRFTISADTSRNTAYLQMNSLRAEDTAVYYCAPFGYYVSDYAMAYWGQGTLVTVSS VL: DIQLTQSPSSLSASVGDRVTITCRAGESVDIFGVGFLHWYQQKPGKAPKLLIYRASNLESGIPSRFSGSGSRTDFTLTISSLQPEDFATYYCQQTNEDPYTFGQGTKVEIKR
0.31	(Y-S1-X)p-Fab^2 with Y Gd/DOTA, S1 - (bond), X -Gly-(diph-Ala)-Lys*-Z2(#S)- (Fab, V domains shown, labeling may sit on this chain; sites not stated; labeling portion (MW 1149) on amino groups of the Fab, sites and chain not stated; 1-3 per Fab by MS, also called Ex-No 30; conjugate 30) VH: EVQLVESGGGLVQPGGSLRLSCAASGFNIRDTYMHWVRQAPGKGLEWVARIDPANGNSRYVPKFQGRFTISADTSRNTAYLQMNSLRAEDTAVYYCAPFGYYVSDYAMAYWGQGTLVTVSS VL: DIQLTQSPSSLSASVGDRVTITCRAGESVDIFGVGFLHWYQQKPGKAPKLLIYRASNLESGIPSRFSGSGSRTDFTLTISSLQPEDFATYYCQQTNEDPYTFGQGTKVEIKR
